The supplement of paper PMC9170038

Tested on: K4 kissing-loop RNA reporter
Assay: apparent KD of K4 kissing-loop reporter; higher = weaker reporter binding
Settings: Eterna round: R107
Description: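 RNA-MaP round R107: designed RNA switches with theophylline, tryptophan, arginine or FMN aptamers are transcribed on-chip within common flanks. They are titrated with a labelled K4 kissing-loop RNA reporter in RNA-MaP buffer (100 mM Tris pH 7.5, 80 mM KCl, 4 mM MgCl2), without ligand or with the indicated ligand. Median apparent KD per design.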

[1] = input ligand: theophylline 20 uM
[2] = input ligand: tryptophan 2.4 mM
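Note: bound reporter read as fluorescence of individual clusters on recovered sequencing chips by microscopy, with normalized cluster intensities fitted with a binding model.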

Sequence | apparent KD of K4 kissing-loop reporter (input ligand: FMN 200 uM) [nM] | apparent KD of K4 kissing-loop reporter (input ligand: arginine 13.2 mM) [nM] | apparent KD of K4 kissing-loop reporter (input ligand: none) [nM] | apparent KD of K4 kissing-loop reporter [1] [nM] | apparent KD of K4 kissing-loop reporter [2] [nM]
UAGGCCGCAUACAUUAGAUAAGGUACCGAUACCAGCCUCGCACCAGGCCCUUGGCAGCGGCAUCAAAUGGGUAGUGAUGUUACCU [theeternabot_exclusion_KL_Theo_A_20] | 139 | 135 | 159 | 144 | 136
UAGGCGGGAGAAGGAUAUCUGUGAAACCUGCUGCCCAAUAAGUGAUGUUUAUAAAGGAAGCGUCAUAGAGAAGGUCUAACAAGUA [theeternabot_sameState_KL_FMN_B_1] | 512 | 582 | 714 | 642 | 814
UAGUCAUACAGAGGAUAUCGUAUGAGUGAUGUUCAUACGAUAUAAUCUAAUUGUAUAGAUGUUCGACGAGAAGGCUGUAUGACUA [FMN B Ex t1a] | 116 | 84.5 | 94.9 | 91.3 | 92.6
UAGUCCUAGUGAUCCUUAUCAAGUGGUGGGCGAGGACCGGUACGGCCGCCACUCGACUAUGCAGUGAUGUUGUAAUCCGGACAAU [Exclusion - Tryptophan A (Freestyle 12)] | 669 | 488 | 633 | 742 | 541
UAUAUAGUGACGGCCGCCACUAUAUUAAUGUUUAGGUUAGAGUGAUGUUUUGAUUAAUAUUUUUAUAGGACCGGGUUAUAUGUUA [xerrmullin] | 563 | 314 | 511 | 739 | 428
UAUCGAGUGAUGUUCGAUGUAGUGCAUUCAGAGGAUAUAGGAUGGGCUAGAAGGCUGAAAAGUGCUUCGAGUGAUGUUCGAAGAU [Exclusion FMN A GF 5] | 63.8 | 49.2 | 80.3 | 57.6 | 65.3
UAUGAAGGUGGAGGAUAUUGAUUGAACCUUGGUCAGGAGUGAUGUUCCGGGAAGCCUUGGGUUCAUCGAGAAGGCCAAGGAUAGU [Extra 2] | 139 | 257 | 254 | 280 | 238
UAUUAAGUGACGGCCGCCACUAUGGUGAUUUAUUUGUUUGAGUGAUGUUUUGAUGUUUGAUUUUGUAGGACCGGGUUAUGUGUUA [ttttcmullin] | 969 | 641 | 735 | 752 | 597
UAUUGAUUGUCAGGAUAUCGUAAACGAGUGAUGUUCGUAAAUCGACGAUAGUCGAUAUGAUCUGAACGAGAAGGGACAUUAUUUA [JR_SSFMNB_Sub010] | 365 | 311 | 388 | 336 | 305
UCAGUGAUGUUGAACAAAUAAUGGUUCCUAAAGGAUAUCCACAGAUGGAGAAGGUUAGUAGCGGCUCGCACAUCGUAGGACAAAU [theeternabot_exclusion_KL_FMN_A_1] | 767 | 648 | 734 | 602 | 526
UCCACGCUUAGAGGAUAUCGGAUUAGAGUGAUGUUCUAAAGAAGCCCAGUGAUGUUGGAUGGUAUACGAGAAGGCUGUGGCGUGU [Same State FMN B GF 4] | 254 | 446 | 386 | 371 | 369
UCCACGCUUAGAGGAUAUCGGAUUAGAGUGAUGUUCUAAAGACGCCCAGUGAUGUUGGAUGGUAUACGAGAAGGCUGUGGCGUGU [Same State FMN B GF5] | 219 | 539 | 551 | 622 | 410
UCCUAGGCUCGAAAGAGCCUAGGAUGGACUCAGGAUAUCCGGAAACGGAGAAGGGAGUCACUAGUGAUGUUAGGGACUCCCUAAC | 302 | 97.7 | 110 | 123 | 109
UCCUAGGCUCGAAAGAGCCUAGGAUUUACUCAGGAUAUCCGGAAACGGAGAAGGGAGUGACUAGUGAUGUUAGGGACUCCCUAAA | 144 | 80.8 | 95.5 | 108 | 90.6
UCCUGCAAUCGACCACGAAAGUGGUUCGAUACCAGAGUCGAAAGACUCCCUUGGCAGCGAGUGAUGUUCGAGCAGGUAAAAUAAA | 438 | 436 | 567 | 467 | 472
UCCUGCAAUCUGCCACGAAAGUGGGUUGAUACCAGAGUCGAAAGACUCCCUUGGCAGCGAGUGAUGUUCGUUGCAGGUGUUUAAA [MatMod 11 - Jieux - Exclusion - Theophylline A] | 197 | 172 | 186 | 217 | 174
UCCUUUGUUGCCAGUGAUGUUGGACAGGAAGGAGCGGGCAUAAGCCCAGGUAGGUCGCCUGUCAACUUUCUUAUAGCCCUAAGGU [KL-XArg-A16] | 343 | 329 | 372 | 323 | 337
UCGCGUAAUGGAAGGAGCGGUGCCAGUGAUGUUGGAUACUGCGUGUAUUAGGUCGGAGCGCACCAGGUAGGUCGCCAUUUGGUGG [Tigedies] | 328 | 276 | 236 | 271 | 369
UCUCAGGAGUGAUGUUCCGUAGGUGGAAGGAAGGAUAUCUAAUGGCAGAGAAGGUCCAUCCUUGCUCGUAUCAGUGCCGGGAAGC [theeternabot_exclusion_KL_FMN_A_13] | 282 | 251 | 232 | 304 | 168
UCUCCAGUGAUGUUGGAGACGGAUGAGGAAGGAGCGGGCACGUGCCCAGGUAGGUCGCCUCGAAAGCCCUGUAGCAUCGCGAAAC [Disoribe] | 281 | 188 | 203 | 193 | 149
UCUGGAGCAUAUGAUACCAGCAGUGAGAGAGAGGAAGUAUAGUGAUGUUAUAUGAGAGAAUGCCCUUGGCAGCGUGUGUAGUGGG [SSTheophylB.M] | 155 | 146 | 119 | 94.5 | 107

Sequence | apparent KD of K4 kissing-loop reporter (input ligand: FMN 200 uM) [nM] | apparent KD of K4 kissing-loop reporter (input ligand: arginine 13.2 mM) [nM] | apparent KD of K4 kissing-loop reporter (input ligand: none) [nM] | apparent KD of K4 kissing-loop reporter [1] [nM] | apparent KD of K4 kissing-loop reporter [2] [nM]
UCUGGUAUAUCUGAUACCAGAGUAUAGUAUCAAUUGAAUAUGGAGUGAUGUUCCAUACAACUCCCUUGGCAGCAGAUCUUCCUCU [Same State Theophylline B GF 23] | 145 | 206 | 188 | 193 | 124
UGACACUCAACGGCCGCCACUACCGUCGCCGAAUUCCGCAGUGAUGUUGCGAUCCUCCGAUUGUCUAGGACCGGGUUGUUUGGGC [theeternabot_exclusion_KL_Trp_B_43] | 181 | 209 | 223 | 216 | 162
UGACAUUGCUCAGAUACCAGACACGAGGAUCACCCGUGUGCCAAAACGUACUAAAUAAGUGUCCCUUGGCAGCUGAGCAAUGUCU [TheoBX 13] | 78.1 | 19.8 | 30.1 | 148 | 47.8
UGACAUUGCUCAGAUACCAGACAUGAGCAUCAGCCAUGUACCAAGAAAACGUACAUAAAUGUCCCUUGGCAGCUGAGCAAUGUCU [TheoBX 10] | 83.5 | 39.8 | 59.9 | 89 | 63.8
UGACAUUGCUCAGAUACCAGACAUGAGCAUCAGCCAUGUGCCAACGUACAAAUAAUAAAUGUCCCUUGGCAGCUGAGCAAUGUCU [TheoBX 15] | 67.4 | 25.8 | 48.2 | 64.6 | 59.9
UGACAUUGCUCAGAUACCAGACUUGAGGAUCACCCAAGUGCCAAACGUACAAUAAUAAAAGUCCCUUGGCAGCUGAGCAAUGUCU [TheoBX 14] | 201 | 13.4 | 97.2 | 112 | 62.1
UGACUACAAAAGGAAUAAUCCUAGUGAUGUUAGGAUAUGCUGAUAAGCAGAAGGAACGGAGAUCGAAGGAUCUCAUAUGUAGUCU [whbob_Ex_FMNA__2th193] | 170 | 92.1 | 86.9 | 117 | 89
UGACUGGACUGAAGGAGCGCGAACUCCUAGUGAUGUUAGGAAAUACGAGACAAAGUCUCGACGCAGGUAGGUCGCAGUCUAGUCU [ArgBS 15 #SwitchBubble #StaticStem] | 110 | 86.6 | 107 | 104 | 98
UGACUGGACUGAAGGAGCGCGCGAGACAAAGUCUCGAACUGCUAGUGAUGUUAGCAAAUAACGCAGGUAGGUCGCAGUCUAGUCU [ArgBS 11 #SwitchBubble #StaticStem #DoubleMagnet] | 135 | 100 | 137 | 92.3 | 124
UGACUGGACUGAAGGAGCGCUAAACUCCUAGUGAUGUUAGGGAAACAAGACAAAGUCUUGAGGCAGGUAGGUCGCAGUCUAGUCU [FiskerMod 3 - Jieux - Same State - Arginine B] | 287 | 199 | 264 | 272 | 225
UGACUGGACUGAAGGAGCGGGCGAGACAAAGUCUCGAACUGCUAGUGAUGUUAGCAAAUAACCCAGGUAGGUCGCAGUCUAGUCU | 122 | 100 | 120 | 109 | 110
UGACUGGAUGGAAGGAGCGCUAAACUCCUAGUGAUGUUAGGGACAUGAGGCAAAGCCUUGAAGCAGGUAGGUCGCCAUCUAGUCU [FiskerMod 27 - Jieux - Same State - Arginine B] | 233 | 133 | 208 | 176 | 167
UGACUGGAUUGAAGGAGCGCUAAACUCCUAGUGAUGUUAGGGACACGAGACAAAGUCUCGAGGCAGGUAGGUCGCAAUCUAGUCU [FiskerMod 6 - Jieux - Same State - Arginine B] | 309 | 225 | 247 | 296 | 249
UGAGGAGAGGGAAGGAGCGUGAAAGAGAAAGAAUAUAGUGAUGUUAUAUAGAAGAAAGAAUCACAGGUAGGUCGCCCGGAGGAGG [SSArgB.B] | 278 | 742 | 479 | 669 | 284
UGAUACCAGACGGCCGCCACUACACCAGUCAAAGACUGGAUGUGAUGUUUGACCAGUGAUGUUGGUAGGACCGGGUCUGGUAUCU [TrypBX 5 #Palindromic #SwitchBubble #StaticStem] | 500 | 394 | 450 | 494 | 326
UGAUACCAGACGGCCGCCACUAGGGCUAGCAAAGCUAGCAAGUGAUGUUUGAGGAGUGAUGUUCCUAGGACCGGGUCUGGUAUCU [TrypBX 1 #Palindromic #SwitchBubble #StaticStem] | 60.5 | 36.3 | 52.2 | 46.5 | 25.9
UGAUACCAGACGGCCGCCACUCCCGCAGGUCAAAGACCUGCGAAGAAGGUUCUUCAGUGAUGUUGGAGGACCGGGUCUGGUAUCU [FiskerMod 22 - Jieux - Exclusion - Tryptophan B] | 217 | 168 | 207 | 213 | 369
UGAUACCAGACGGCCGCCACUCCCGUAAGUCAAAGACUUACGAAGAGGGUUUUUCAGUGAUGUUGGAGGACCGGGUCUGGUAUCU [FiskerMod 17 - Jieux - Exclusion - Tryptophan B] | 516 | 420 | 545 | 506 | 824
UGAUACCAGACUGAUACCAGCCAGUGAUGUUGGCUAAGCCAAAUAGGAGUCAAAGACUCCGGCCCUUGGCAGCAGUCUGGUAUCU [TheoBX 5 #SwitchBubble #StaticStem] | 127 | 117 | 122 | 124 | 127
UGAUAGGACAGAAGGAGCGGAAGUGAUGUUUCCAAAUGGAAUAAGGUGUCAAAGACACCCUUCCAGGUAGGUCGCUGUCCUAUCU [ArgBX 15 #Palindromic #SwitchBubble #StaticStem] | 147 | 175 | 140 | 161 | 128
UGAUAGGACAGAAGGAGCGGAGCUGGUCAAAGACCAGCAAUAACGUUGAAAGGAGUGAUGUUCCAGGUAGGUCGCUGUCCUAUCU [ArgBX 26 #SwitchBubble #StaticStem] | 121 | 130 | 120 | 163 | 93.7
